B1: bsIgG1-016-H5L2-LC90S-F405L-E430Gx010-H5L2-K409R-E430G (bispecific antibody)
heavy 1: not shown
light 1: DVVMTQSPSTLSASVGDRVTITCQASQNIDSNLAWYQQKPGKAPKFLIYYASNLPFGVPSRFKGSGSGTEFTLTISSLQPDDFATYYCQSADVGSTYVAAFGGGTKVEIKRTVAAPSVFIFPPSDEQLKSGTASVVCLLNNFYPREAKVQWKVDNALQSGNSQESVTEQDSKDSTYSLSSTLTLSKADYEKHKVYACEVTHQGLSSPVTKSFNRGEC
heavy 2: not shown
light 2: AYDMTQSPSTLSASVGDRVTITCQASQNIIDYLAWYQQKPGKAPKLLIHKASTLASGVPSRFKGSGSGTEFTLTISSLQPDDFATYYCQQGYSNSNIDNTFGGGTKVEIKRTVAAPSVFIFPPSDEQLKSGTASVVCLLNNFYPREAKVQWKVDNALQSGNSQESVTEQDSKDSTYSLSSTLTLSKADYEKHKVYACEVTHQGLSSPVTKSFNRGEC
notes: also called bispecific CD37 antibody
B2: bsIgG1-016-H5L2-LC90S-F405L-E430Gxb12-K409R-E430G (bispecific antibody)
heavy 1: not shown
light 1: B1 light 1
heavy 2: not shown
light 2: EIVLTQSPGTLSLSPGERATFSCRSSHSIRSRRVAWYQHKPGQAPRLVIHGVSNRASGISDRFSGSGSGTDFTLTITRVEPEDFALYYCQVYGASSYTFGQGTKLERKRTVAAPSVFIFPPSDEQLKSGTASVVCLLNNFYPREAKVQWKVDNALQSGNSQESVTEQDSKDSTYSLSSTLTLSKADYEKHKVYACEVTHQGLSSPVTKSFNRGEC
notes: also called antibody 016

What was measured:
human CD37 [1] = target: T1, human CD37 (human (Homo sapiens), UniProt P11049 1-281); assay: flow cytometry, Alexa-488 labeled antibody on B cells in human whole blood; average of 6 donors
T1 construct: Endogenous on Daudi cells, Raji cells and human blood B cells; also called Leukocyte Antigen CD37; GP52-40
T1 sequence: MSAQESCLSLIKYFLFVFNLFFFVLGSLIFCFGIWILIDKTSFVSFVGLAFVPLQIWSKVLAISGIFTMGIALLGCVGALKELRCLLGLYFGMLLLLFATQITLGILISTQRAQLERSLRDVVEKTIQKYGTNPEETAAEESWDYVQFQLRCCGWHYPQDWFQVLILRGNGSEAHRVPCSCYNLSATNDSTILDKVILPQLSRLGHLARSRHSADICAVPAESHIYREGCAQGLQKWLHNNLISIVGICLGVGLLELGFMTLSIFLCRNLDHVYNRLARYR
Description: (§1) Binding to human or cynomolgus monkey B cells was determined in a whole blood binding assay. Heparin-treated human blood from healthy volunteers was derived from UMC Utrecht (Utrecht, The Netherlands), hirudin-treated blood from cynomolgus monkeys was derived from Covance (Münster, Germany). Blood was aliquoted to wells of a 96-well round-bottom plate (Greiner Bio-one, cat. no. 65010; 35 μL/well). Red blood cells (RBC) were lysed by addition of 100 μL RBC lysis buffer (10 mM KHCO₃ [Sigma P9144], 0.1 mM EDTA [Fluka 03620] and […] NH₄CL [Sigma A5666]) and incubated on ice until RBC lysis was complete.
(§2) Cells were pelleted and washed twice in 150 μL FACS buffer and resuspended in 150 μL TO-PRO-3 (end concentration 0.2 μM; Molecular Probes, cat no. T3605). Samples were measured by flow cytometry using an LSRFortessa flow cytometer. Binding is expressed as geometric mean of A488 fluorescence intensity for viable TO-PRO-3⁻/CD14⁻/CD19⁺ B-cells (human) or viable TO-PRO-3⁻/CD14⁻/CD19⁺/CD20⁺ B-cells (cynomolgus monkey). Log-transformed data were analyzed using best-fit values of a non-linear dose-response fit in GraphPad PRISM.

cynomolgus monkey CD37 = target: T2, cynomolgus monkey CD37 (cynomolgus monkey (Macaca fascicularis), UniProt P11049 1-281 (human entry)); assay: flow cytometry, Alexa-488 labeled antibody on B cells in cynomolgus monkey whole blood; average of 4 animals
T2 construct: also called mfCD37; cynomolgus CD37
T2 chain: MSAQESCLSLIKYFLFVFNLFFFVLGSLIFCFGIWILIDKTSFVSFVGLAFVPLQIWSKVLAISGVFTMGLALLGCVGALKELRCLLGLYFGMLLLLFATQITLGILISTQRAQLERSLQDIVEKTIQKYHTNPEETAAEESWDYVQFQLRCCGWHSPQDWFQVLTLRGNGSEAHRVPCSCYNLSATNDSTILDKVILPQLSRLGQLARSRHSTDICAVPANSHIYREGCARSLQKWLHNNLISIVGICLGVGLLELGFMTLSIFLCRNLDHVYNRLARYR
Description: as §1, §2

human CD37 [2] = target: T1, human CD37; assay: flow cytometry on HEK293 cells expressing wild type CD37 or alanine mutants, Alexa488 antibody at 3 µg/mL
Description: The wild type CD37 and alanine mutants were expressed individually in FreeStyle HEK293 cells according to the manufacturer's instructions (Thermo Scientific). One day post transfection the cells were harvested. […] Cells were incubated for 1 hour at room temperature. Subsequently, cells were washed twice by adding 150 μL FACS buffer and removing the supernatant after centrifugation. Cells were resuspended in 20 μL fresh FACS buffer and stored at 4° C. until analysis by flow cytometry using an iQue screener (IntelliCyt). The entire experiment was performed 2 times.

| Binder | EC50 (human CD37 [1]) [µg/mL] | EC50 (cynomolgus monkey CD37) [µg/mL] | binding result (human CD37 [2]) |
| --- | --- | --- | --- |
| B1 | 0.85 | 0.63 | – |
| B2 | – | – | binds |

From patent US20240252635A1 (Genmab, published 2024)
